Experimental findings from article PMC7600800 are described below.

Assay in all cases: anti-HA immunoprecipitation, SDS-PAGE and mass spectrometry
Experiment [1] has as its target heat shock 70 kDa protein 1-like. The conditions noted are these: lysates of transfected HEK293 cells; parent: 13.
For the next experiment, the target named is lamin-B1 isoform 1. Particulars: lysates of transfected HEK293 cells; parent: -.
Experiment [2] has as its target regulator of chromosome condensation isoform c. Particulars: lysates of transfected HEK293 cells; parent: -.
The target of experiment [3] is 78 kDa glucose-regulated protein precursor. The conditions noted are these: lysates of transfected HEK293 cells; parent: 39.
Experiment [4] deals with dnaJ homolog subfamily A member 1. Particulars: lysates of transfected HEK293 cells; parent: 7.
Experiment [5] concerns the target heat shock-related 70 kDa protein 2. The conditions noted are these: lysates of transfected HEK293 cells; parent: 14.
In the next experiment the target is ruvB-like 1. Particulars: lysates of transfected HEK293 cells; parent: 3.
Experiment [6] addresses T1, 14-3-3, endogenous, P63104.
T1 chain: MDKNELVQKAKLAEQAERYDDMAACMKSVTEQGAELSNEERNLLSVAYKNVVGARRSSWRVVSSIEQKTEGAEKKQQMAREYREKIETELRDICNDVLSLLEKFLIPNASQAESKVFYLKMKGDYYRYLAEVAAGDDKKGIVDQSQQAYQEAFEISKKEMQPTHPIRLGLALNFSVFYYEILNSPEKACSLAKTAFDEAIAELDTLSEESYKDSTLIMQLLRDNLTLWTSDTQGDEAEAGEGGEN
The conditions noted are these: chain shown with the change; lysates of transfected HEK293 cells; parent: -.

On to “HA-tagged p27 wild type (from UniProt P46527) R30A; N31A; L32A”, for which the other: number of unique peptides (unique peptides) in experiment [1] is 12; with lamin-B1 isoform 1 it was 3; in experiment [2], 2; in experiment [3], 34; in experiment [4], 4; in experiment [5] it was 6. Further, the other: number of unique peptides (unique peptides) with ruvB-like 1 came to 2.

B1: HA-tagged p27 wild type, P46527 R30A; N31A; L32A (protein)
chain: MSNVRVSNGSPSLERMDARQAEHPKPSACAAAFGPVDHEELTRDLEKHCRDMEEASQRKWNFDFQNHKPLEGKYEWQEVEKGSLPEFYYRPPRPPKGACKVPAQESQDVSGSRPAAPLIGAPANSEDTHLVDPKTDPSDSQTGLAEQCAGIRKRPATDDSSTQNKRANRTEENVSDGSPNAGSVEQTPKKPGLRRRQT
Take B1: the other: number of unique peptides (unique peptides) in experiment [6] was found to be 4.
